Data on 7 molecules can be found in patent publication US20200339680A1 (Alector, published 2020).

For orientation: Kd means the equilibrium constant for the complex coming apart. What is called koff is a measure of how fast the partners let go of each other. High values mean a short-lived complex, low ones a long-lived complex. As usually defined, the kon is a measure of how fast the partners come together. Low readings indicate slower complex formation, high ones faster complex formation.

For assay [1], the target named is T1, human TMEM106B (human, UniProt Q9NUM4 2-274).
T1 construct: full-length, transiently expressed on HEK293 cells, or natively expressed on HeLa, U251 and A549 cells (the cell is named under assay); also the source of the Pepscan peptides; also called huTMEM106B; huTMEM
The experiment in a line: FACS A549.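 Further: flow cytometry of cells incubated on ice for 1 h with hybridoma supernatant or purified antibody at 10 µg/mL, dead propidium iodide-positive cells gated out.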

The target in assay [2] is T1, human TMEM106B. The experiment in a line: FACS HeLa.
Experimental: (§1) All cells were cultured in either T75 or T150 flasks. […] The enzyme was quenched by addition of fresh media, and the cells were then distributed into 96-well plates for FACS analysis.
(§2) FACS analysis was performed as follows. Each cell type was aliquoted in 96-well round bottom plates (2×10^5 cells per well), washed once with FACS buffer (PBS+2% FBS+1 mM EDTA), and incubated with 50 μL of hybridoma supernatant or purified antibody (10 μg/ml in FACS buffer) on ice for 1 hour. […] Following this secondary incubation, the cells were again washed 2× with ice-cold FACS buffer and resuspended in a final volume of 50 μL of FACS buffer+0.25 μl/well propidium iodide (Fisher Scientific #4BDB556463). Analysis was performed on a FACSCanto system (BD Biosciences) or iQue (Intellicyt), with sort gates drawn to exclude dead (i.e., propidium iodide positive) cells.
The target in assay [3] is T1, human TMEM106B. The assay can be described thus: FACS U251.
Experimental: as §1, §2
The target in another assay is T2, mouse TMEM106B (mouse, UniProt Q80X71 2-275).
T2 construct: transiently expressed on HEK293 cells, or native on mouse Neuro2a cells; also called moTMEM106B; murine TMEM106B
The experiment in a line: FACS Neuro2a.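 Further: flow cytometry of antibody binding to cells: hybridoma supernatant or purified antibody at 10 µg/ml, 1 h on ice, secondary detection, propidium iodide–positive dead cells gated out.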

The target in assay [4] is T1, human TMEM106B. The experiment in a line: FACS A549 1 ug/ml.
Experimental: (§3) Purified anti-TMEM106B antibodies were evaluated for their binding affinity to various TMEM106B-expressing cell lines including HEK293 transiently transfected with human/cyno/mouse TMEM106B, as well as HeLa cells and A549 cells. Antibodies tested for this experiment were mouse IgGs purified from hybridoma supernatant. Affinity binding to cells was determined as follows. Briefly, 1×10\hat{ }5 cells were aliquoted per well in 96-well round bottom plates and incubated with 50 μL of purified anti-TMEM106B antibody at various concentrations (10× dilutions starting at 10 μg/ml) in FACS buffer (PBS+2% FBS+1 mM EDTA). […] Sorting was performed on a iQue (Intellicyt), with sort gates drawn to exclude dead (propidium iodide+) cells. Binding data was analyzed using median fluorescent intensity (MFI) and graphed in Prism. Values presented are MFI.
In assay [5] the target is T1, human TMEM106B. The assay can be described thus: FACS A549 10 ug/ml.
Experimental: as §3
In assay [6] the target is T1, human TMEM106B. The experiment in a line: FACS HEK+huTMEM 10 ug/ml.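 Further: flow cytometric binding of purified mouse IgG antibodies to HEK293 cells transiently expressing human TMEM106B, read as median fluorescence intensity on live cells with propidium iodide-positive cells excluded.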
Experimental: as §3
Assay [7] concerns the target T1, human TMEM106B. The assay can be described thus: FACS HEK+huTMEM 0.1 ug/ml.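 Further: flow cytometry binding of purified mouse IgG antibodies to HEK293 cells transiently expressing TMEM106B, read as median fluorescence intensity on live cells (propidium iodide negative gating).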
Experimental: as §3
The target of assay [8] is T1, human TMEM106B. The experiment in a line: FACS HEK+huTMEM 1.0 ug/ml.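 Further: binding of purified mouse IgG antibodies to HEK293 cells transiently expressing human TMEM106B, read by flow cytometry as median fluorescence intensity of live, propidium iodide-negative cells.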
Experimental: as §3
For assay [9], the target named is T1, human TMEM106B. The experiment in a line: FACS HEK+huTMEM 0.1 ug/ml (2nd column so headed).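 Further: flow cytometry binding of purified anti-TMEM106B mouse IgG to HEK293 cells transiently transfected with TMEM106B, read as median fluorescence intensity on live (propidium iodide-negative) cells.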
Experimental: as §3
The target in assay [10] is T3, GST Fusion human TMEM106B ECD (Truncated) (human).
T3 construct: also called GST-TMEM106B-truncated protein; GST-TMEM106B (truncated)
The assay can be described thus: SPR array.
Experimental: (§4) Binding kinetic characterization of the purified antibodies was performed by Carterra using a proprietary array SPR instrument (MX-96) as follows. Briefly, antibodies were prepared by diluting to 5 μg/ml in 10 mM Acetate, pH 4.5 (Carterra), at 150 μL/well and then made an additional dilution at 1:10 from there by titrating 11 μL into 100 μL. […] The chip was activated with 18 mM EDC (Sigma Bioxtra) and 4.5 mM S—NHS (Thermo Fisher) diluted in 100 mM MES, pH 5.5, for 7 minutes, and then antibodies were coupled for 10 minutes at 45 μL/minute. After coupling, the chip was returned to the MX-96 and quenched for 7 minutes using 1 M Ethanolamine pH 8.5 (Carterra).
(§5) Printed antibodies were profiled for their ability to bind GST-TMEM106B (truncated) protein (described above). Briefly, GST-TMEM106B (truncated) antigen was diluted to 18 μg/ml (500 nM of 36 kDa fusion protein) by mixing 2.7 μL of 2.0 mg/ml antigen into 298 μL Running buffer (HBS-EP+, Teknova with 1 mg/ml BSA, Sigma), and titrated 50 μl into 200 μl for 5-fold serial dilutions. […] Duplicate measurements for each anti-TMEM106B antibody were taken to ensure reproducibility.

Assay [11] deals with T3, GST Fusion human TMEM106B ECD …. The assay can be described thus: SPR array; SPR kinetics, Table 5, first of two listed runs.
Experimental: as §4, §5
Assay [12] shares this target. The experiment in a line: SPR array; SPR kinetics, Table 5, second of two listed runs.
Experimental: as §4
Printed antibodies were profiled for their ability to bind GST-TMEM106B (truncated) protein (described above). Briefly, GST-TMEM106B (truncated) antigen was diluted to 18 μg/ml (500 nM of 36 kDa fusion protein) by mixing 2.7 μL of 2.0 mg/ml antigen into 298 μL Running buffer (HBS-EP+, Teknova with 1 mg/ml BSA, Sigma), and titrated 50 μl into 200 μl for 5-fold serial dilutions. In addition, binding to GST (Pierce) was assayed under the same conditions to determine the extent of any non-specific binding of the anti-TMEM106B antibodies to GST portion of the TMEM106B-GST fusion protein. Duplicate measurements for each anti-TMEM106B antibody were taken to ensure reproducibility.
The target is the same in assay [13]. The assay can be described thus: SPR array; SPR kinetics, Table 5, first of two listed runs; weak binder. (In general: SPR reads the build-up and loss of mass on a sensor chip optically.)
Experimental: as §4, §5
Assay [14] has the same target. The assay can be described thus: SPR array; SPR kinetics, Table 5, first of two listed runs (KD 4.70E-07 M).
Experimental: as §4, §5
For assay [15] the target is unchanged. The assay can be described thus: SPR array; SPR kinetics, Table 5, second of two listed runs (KD 2.90E-08 M).
Experimental: as §4, §5

Experimental for mouse TMEM106B: as §1, §2

B1: TM-45 (antibody, V domains shown)
VH: QVQLQQSGAELAKPGASVKLSCKASGYTFTNYWMHWVKKRPGQGLEWIGYINPSSGYTKYNQKFKDKATLTADKSSNTAYMQLSSLTYEDSAVYYCTREGGSISDWYFDVWGTGTTVTVSS
VL: DIVMTQAAPSLPVTPGESVSISCRSSKSLLHSNGNTYLYWFLQRPGQSPQLLIYRMSNLASGVPDRFSGSGSGTAFTLRISRVEAEDVGVYYCMQHLEYPYTFGGGTKLEIK
As for B1, the MFI with human TMEM106B [1] was 819 MFI; with human TMEM106B [2], 191 MFI; with human TMEM106B [3], 517 MFI; in the assay with mouse TMEM106B, 187 MFI; with human TMEM106B [4], 1860 MFI; with human TMEM106B [5], 3240 MFI. Further, the MFI with human TMEM106B [6] came out at 58100 MFI; with human TMEM106B [7] it was 21300 MFI; with human TMEM106B [8], 57600 MFI; in the assay with human TMEM106B [9], 2500 MFI.

B2: TM-49 (antibody, V domains shown)
VH: QVQLQQPGAELVRPGSSVKLSCKASGYTFTRFWMHWVKQRPIQGLEWIGNIDPSDSQTHYNQKFKDKATLTVDKSSSTAYMQLSSLTSEDSAVYYCARLITVDYAMDYWGQGTSVTVSS
VL: QIVLTQSPAIMSASPGEKVTISCSASSSVSYMYWYQQKPGSSPKPWIHRTSNLASGVPVRFSGSGSGTSYSLTISSMEAEDAATYYCQQYHSYPPTFGAGTKLELK
notes: mouse IgG (hybridoma)
As to B2, the MFI with human TMEM106B [1] is 924 MFI; with human TMEM106B [2], 187 MFI; in the assay with human TMEM106B [3] it was 434 MFI; with mouse TMEM106B, 291 MFI; with human TMEM106B [4] it was 473 MFI; in the assay with human TMEM106B [5], 613 MFI. The MFI turned out to be 16500 MFI with human TMEM106B [6], 3030 MFI with human TMEM106B [7], 15700 MFI in the assay with human TMEM106B [8] and 756 MFI in the assay with human TMEM106B [9].

B3: TM-16 (antibody, V domains shown)
VH: EVQLQQSGAELVRPGASVKLSCTTSGFNIKDYYMHWVKQRTEQGLEWIGRIDPEDGETKYAPEFQGKATITSDTSSNTAFLQLSSLTSEDTAVYYCASSQPFTYWGQGTLVTVSA
VL: QIVLTQSPAIMSASPGEKLTMTCSASSSLNYMYWYQQKPGSSPRLLIYDTSNLASGVPVRFSGSGSGTSYSLTISRMEAEDGATYYCQQWTSFPPTFGAGTKLELK
B3: the MFI came to 605 MFI in the assay with human TMEM106B [1]; 548 MFI in the assay with human TMEM106B [2]; 292 MFI in the assay with human TMEM106B [3]; 392 MFI in the assay with mouse TMEM106B; 409 MFI in the assay with human TMEM106B [4]; 557 MFI in the assay with human TMEM106B [5]. For the same molecule, the MFI amounted to 5980 MFI with human TMEM106B [6], 680 MFI in the assay with human TMEM106B [7], 2140 MFI in the assay with human TMEM106B [8] and 351 MFI with human TMEM106B [9]. Besides, the Kd was 29 nM in assay [10] and 470 nM in [13]. The koff in assay [11] is 0.0031 s⁻¹; in assay [12] it was 0.00095 s⁻¹. Besides, the results for the kon in [14] and in assay [15] were 6500 M⁻¹ s⁻¹ and 33000 M⁻¹ s⁻¹, respectively.

B4: TM-50 (antibody, V domains shown)
VH: QVQLKESGPVLVAPSQSLSITCTVSGFSLTNYGVHWVRQPPGKGLEWLGVIWAGGNTNYNSALMSRLSISKDNSKSQVFLKMNSLQTDDTAMYYCAKEAKLLRSYAMDYWGQGTLVTVSA
VL: DVQMTQTTSSLSASLGDRVTISCRASQDINNYLYWYQQKPDGTVKLLIYYTSMLHSGVPSRFSGSGSGTDYSLTISNLEQEDIATYFCQQGSTLMYTFGGGTKLEIK
notes: mouse IgG (hybridoma)
Consider B4, for which the MFI stood at 580 MFI in the assay with human TMEM106B [1]; 159 MFI with human TMEM106B [2]; 260 MFI in the assay with human TMEM106B [3]; 257 MFI in the assay with mouse TMEM106B; 381 MFI with human TMEM106B [4]; 445 MFI in the assay with human TMEM106B [5]. In addition, the MFI turned out to be 396 MFI in the assay with human TMEM106B [6], 305 MFI with human TMEM106B [7], 314 MFI in the assay with human TMEM106B [8] and 294 MFI in the assay with human TMEM106B [9].

B5: TM-44 (antibody, V domains shown)
VH: EVQLVESGGGLVKPGGSLKLSCAASGFTFSDYGMHWVRQAPEKGLEWVAYISSGSSTIYYADTVKGRFTISRDNAKNTLFLQMTSLRSEDTAMYYCARNYGSPYAMDYWGQGTSVTVSS
VL: not shown
notes: mouse IgG (hybridoma)
For B5, the MFI with human TMEM106B [1] stood at 392 MFI; with human TMEM106B [2] it was 168 MFI; in the assay with human TMEM106B [3] it was 522 MFI; with mouse TMEM106B, 202 MFI; with human TMEM106B [4] it was 404 MFI; with human TMEM106B [5], 466 MFI. Besides, the MFI in the assay with human TMEM106B [6] was 512 MFI; with human TMEM106B [7], 309 MFI; with human TMEM106B [8], 337 MFI; in the assay with human TMEM106B [9], 300 MFI.

B6: TM-52 (antibody, V domains shown)
VH: QVQLQQPGAELVKPGASVKLSCKASGYTFTNYWMHWVKQRPGQGLDWIGNIDPSDSETHYNQKFKDKATLTVDKVSSTAYMQLSSLTSEDSAVYYCARRGYYGRSPFAYWGQGTLVTVSA
VL: ENVLTQSPAIMSASPGEKVTMTCSASSSVSYMHWYQQKSNTSPKLWIYDTSKLASGVPGRFSGSGSGNSYSLTISSAEAEDVATYYCFQGSGYPLTFGAGTKLELK
notes: mouse IgG (hybridoma)
Turning to B6, the MFI with human TMEM106B [1] was 987 MFI; with human TMEM106B [2], 227 MFI; in the assay with human TMEM106B [3] it was 341 MFI; in the assay with mouse TMEM106B it was 210 MFI; with human TMEM106B [4], 401 MFI; with human TMEM106B [5], 443 MFI. For the same molecule, the MFI was 7020 MFI in the assay with human TMEM106B [6], 1940 MFI with human TMEM106B [7], 8200 MFI with human TMEM106B [8] and 451 MFI with human TMEM106B [9].

B7: TM-48 (antibody, V domains shown)
VH: QVQLQQSGPELVKPGASVKLSCKASGYTFTSYDINWVKQRPGQGLEWIGWIYPRDGNTQYIEKLKGKATLTVDTSSSTAYMELHSLTSEDSAVYFCARWIFYAMDYWGQGTSVTVSS
VL: DVLMTQTPLSLPVSLGNQASISCRSSQSIVHGNGNTYLEWYLQKPGQSPKLLIYKVSNRFSGVPDRFSGSGSGTDFTLKISRVEAEDLGVYYCFQGSHLPYTFGGGTKLEIK
Regarding B7, the MFI worked out at 677 MFI with human TMEM106B [1]; 219 MFI with human TMEM106B [2]; 346 MFI with human TMEM106B [3]; 292 MFI in the assay with mouse TMEM106B; 1580 MFI with human TMEM106B [4]; 2450 MFI in the assay with human TMEM106B [5]. For the same molecule, the MFI came to 38200 MFI with human TMEM106B [6], 21600 MFI with human TMEM106B [7], 39900 MFI in the assay with human TMEM106B [8] and 4050 MFI in the assay with human TMEM106B [9].
